Biological target: ブラジキニン受容体 (bradykinin receptor) on SV-T2 cells
Assay: cell-based or functional assay

Substance: ブラジキニン (bradykinin) (peptide)
- PGE2合成 (PGE2 synthesis in SV-T2 cells, ELISA): 4 倍 (fold)
- PGE2合成 (PGE2 synthesis in SV-T2 cells, Fig. 7C): 4 倍 (fold)
